This note sets out measurements from patent publication US20100158902A1 (ONO PHARMACEUTICAL, published 2010).

Assay [1] deals with T1, monomeric SDF-1 (human, UniProt P48061 22-89).
T1 construct: also called monomeric form of SDF-1; SDF-1 at low density on a CM5 chip
The experiment in a line: SPR (Biacore), low density of SDF-1 covalently attached to CM5 chip, analyte at 10-50 nM. (In SPR one partner is held on a chip, and binding of the other changes the refractive index at the surface.)

The target in assay [2] is T2, recombinant human SDF-1α (Peprotech) (human, UniProt P48061 22-89).
T2 construct: Bought protein (Peprotech, cat. 300-28A); also called rh SDF-1α; Stromal cell-Derived Factor-1
The assay is described as follows: SPR (Biacore), antibody amine-coupled to CM5 chip, SDF-1 flowed at 5-40 nM right after dilution to maximize the dimer population, 1:1 Langmuir fit. On the procedure: The antigen-antibody association kinetics was followed for 2 minutes and the dissociation kinetics was followed for 8 minutes. The association and dissociation curves were fit to a 1:1 Langmuir binding model using BIAevaluation software (Biacore AB).

Assay [3] addresses T1, monomeric SDF-1. The experiment in a line: SPR (Biacore), low density of SDF-1 covalently attached to CM5 chip, analyte at 100-500 nM.
The target in assay [4] is T2, recombinant human SDF-1α (Peprotech). The assay is described as follows: radio-labeled ligand binding assay: the antibody blocks binding of 100 pM 125I-SDF-1 to CEM cells; unit taken from the axis 'Ab in nM'. The text has this: (§1) An irrelevant antibody with the same isotype was used as a negative control.
The target is the same in assay [5]. The assay is described as follows: radio-labeled ligand binding assay: the antibody blocks binding of 100 pM 125I-SDF-1α to HuVEC cells (GAGs, no CXCR4); unit taken from the axis 'Ab conc in nM'.
Description: as §1

Assay [6] shares this target. The assay is described as follows: cell-based or functional assay.

Residue numbers refer to the chain shown, from its start.

T1 sequence (P48061 22-89 limits assumed): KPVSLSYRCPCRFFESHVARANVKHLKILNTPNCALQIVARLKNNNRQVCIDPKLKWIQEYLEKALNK
T2 sequence (P48061 22-89 limits assumed): as above

B1: 1C6 human monoclonal antibody (antibody, V domains shown)
VH: EVQLVESGRGLVQPGGSLRLSCAASGFTFSSYWMSWVRQAPGKGLEWVANMNQDGSEKYYVDSVKGRFTISRDNAKNSLYLQMNSLRAEDTAVYYCARDLTGPYYYDYYGMDVWGQGTTVTVSS
VL: AIRMTQSPSSVSASVGDRVTITCRASQGISSALAWYQQTPGKAPKLLIYDASSLESGVPSRFSGSGSGTDFTLTISSLQPEDFATYYCQQFNSYPRTFGQGTKVEIK
notes: Whole human monoclonal antibody with kappa light chain (VK L18), from a HuMAb Mouse; also called Z1/C6; mAb Z group antibody
Turning to B1, in the assay with monomeric SDF-1 [1], the Kd was 3.6 nM, the koff was 0.0004 s⁻¹ and the kon came to 110000 M⁻¹ s⁻¹. In assay [2], the Kd is 0.46 nM, the koff is 0.00064 s⁻¹ and the kon was 1.4e+06 M⁻¹ s⁻¹.

B2: 1D3 human monoclonal antibody (antibody, V domains shown)
VH: EVQLVQSGAEVKKPGASVKVSCKVSGYTLTKLSVHWVRQAPGKGLEWMGSFDPEDGETIYSQRFQGRVTMTEDTSTDTAYMELTSLRSEDTAVYYCATEGQWLVAYYGMDVWGQGTTVTVSS
VL: B1 VL with A1E, R3V, M4L, V11L, T39K, R96L, Q100G
notes: Whole human monoclonal antibody with kappa light chain (VK L18), from a KM Mouse; also called B1/D3; mAb B group antibody
Regarding B2, in the assay with monomeric SDF-1 [3], binding was put at a Kd of 151 nM, the off-rate constant (koff) was 0.0017 s⁻¹ and the kon stood at 11000 M⁻¹ s⁻¹. In assay [2], the Kd was 0.63 nM, the koff turned out to be 0.0005 s⁻¹ and the kon came to 800000 M⁻¹ s⁻¹.

B3: 2A5 human monoclonal antibody (antibody, V domains shown)
VH: B1 VH with E1Q, E6Q, R9G
VL: B1 VL with A1D, R3Q, T5I, V11L, T39K
notes: Whole human monoclonal antibody with kappa light chain (VK L18), from a HuMAb Mouse; also called Z2/A5; Z2A5
With B3, in the assay with monomeric SDF-1 [1], the Kd was 4.6 nM, the koff was found to be 0.00045 s⁻¹ and the kon turned out to be 96000 M⁻¹ s⁻¹. Also, in assay [4], the EC50 was 0.347 nM. In addition, the EC50 in assay [5] came to 0.0637 nM. The “EC50, inhibition of SDF-1α (5 nM)-induced migration of CEM cells (Fluorescent Units)” value in assay [6] worked out at 0.543 nM. Also, in assay [2], the Kd came out at 0.37 nM, the koff is 0.0011 s⁻¹ and the kon came to 2.9e+06 M⁻¹ s⁻¹.

B4: 1H2 human monoclonal antibody (antibody, V domains shown)
VH: B2 VH with E1Q, L29F, T84S, T117M
VL: B1 VL with A1E, R3V, M4L, V11L, T39K, R96L, Q100G
notes: Whole human monoclonal antibody with kappa light chain (VK L18), from a KM Mouse; also called B1/H2; B1H2
For the molecule B4, the EC50 in assay [4] was determined as 0.117 nM. In addition, in the assay with monomeric SDF-1 [3], the Kd was 176 nM, the koff came to 0.0016 s⁻¹ and the kon worked out at 9100 M⁻¹ s⁻¹. The EC50 in assay [5] was found to be 0.013 nM. Moreover, the “EC50, inhibition of SDF-1α (5 nM)-induced migration of CEM cells (Fluorescent Units)” value in assay [6] was found to be 0.498 nM. Also, in assay [2], the dissociation constant Kd came out at 1.32 nM, the koff came to 0.00084 s⁻¹ and the kon was determined as 600000 M⁻¹ s⁻¹.

One may read the Kd as the constant that tells how readily two partners part at equilibrium. Usually koff stands for the rate constant with which the complex falls apart. One may read the kon as the second-order rate constant of association. Broadly, the EC50 is the concentration at which the effect is half-maximal.
